Data set [1] concerns the target T1, Spo0A-DBD-6xHis (Clostridium difficile 630Δerm) (UniProt I6ZTX1).
T1 sequence: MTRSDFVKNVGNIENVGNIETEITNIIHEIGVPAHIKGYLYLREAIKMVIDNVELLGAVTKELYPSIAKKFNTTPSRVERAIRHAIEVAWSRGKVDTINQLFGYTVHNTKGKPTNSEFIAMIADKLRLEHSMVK
Put plainly: EMSA. The settings on record: EMSA: 10 mM Tris-HCl pH 7.6, 1 mM EDTA, 50 mM NaCl, 1 mM DTT, 5% glycerol, 200 ug/mL BSA, 200 cpm/uL 32P-DNA, 20 min at 30 C; 8% native PAGE in 1x TAE. (In general: A gel shift assay detects complexes by their altered migration in electrophoresis.)

The test system of data set [2] is Spo0A-DBD-6xHis (Clostridium difficile 630Δerm). Nature of the data set: EMSA. As to conditions: EMSA: 10 mM Tris-HCl pH 7.6, 1 mM EDTA, 50 mM NaCl, 1 mM DTT, 5% glycerol, 200 ug/mL BSA, 200 cpm/uL 32P-DNA, 20 min at 30 C; 8% native PAGE in 1x TAE.

The term Kd denotes the equilibrium constant for the complex coming apart. Low values mean a tighter complex, high ones a looser complex.

On to “AGGATTTTTAGTAGGATAATAGCTTTATTAAATATTTATAAAATGCTGTTATTTCGGTAGTTTCCAAGACATTACTGACTATAAGAACTAATTCTTACAATCAATAGTAAACAAAATGATTGACGATTATTGGAAACCTTGTTATGCTATGAAGGTAAGGATTTTGTCGAATAATGACGAAGAAAAATATAATTTAAACAAATAAGTATCTCTTGGGAG (double strand) [PabrB]”, for which, in data set [1], the Kd is below 50 nM.

Turning to “CAATTCTGTATTCCATTTATGTATCCCTCCATAACGGTTGCTTCAATAGATCATAATTCGCCAATGACACAAAAAATCCTTTTTATTTTTCGATCTTGGCAGATTTTAATTTTAATTCAAGATATACGCGGGAATCCTTTGAATATTTGTATTTTGGATTTGTCCTGCCGTACTCCTTTGATGTATAAGAGACATCATAATGCTGTTCAAATGATCTAATGAGCTGTTCAATTTCTTCTTGTTTTCCAGCTAGCCTTACCTGTGCCACTTCGTATCCTCCGCTTTCA (double strand) [PcitG]”, the binding result in data set [1] was “no binding”.

As to PabrB, the Kd in data set [2] was below 50 nM.

Substance PabrB C4A displayed a binding signal (fold lower affinity than PabrB) in data set [2] of 10.

On to PabrB G2A, for which the binding signal (fold lower affinity than PabrB) in data set [2] amounted to 10.

Take PabrB G5A: the binding signal (fold lower affinity than PabrB) in data set [2] turned out to be 10.

These data come from paper PMC3485338.
